This assay relates to PPIs identified as affected by the SH3 domain deletions. Nature of the assay: Liquid DHFR-PCA low-throughput validation of PPIs affected by SH3 deletion (Fig. S1D-E). The following applies: label = prey, liquid DHFR-PCA, prey _1 = lost, _2 = gained in screen. It is filed as cell-based, Saccharomyces cerevisiae. In outline:
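Growth at 30 °C was tracked by OD each 15 min over 72 h in agar-free PCA selection medium, starting at 0.1 OD. Cells were diploids selected after mating, first cultured 48 h with NAT and HPH in synthetic complete MSG medium, pH 6.0.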

B1: YLR314C_1 (protein, UniProt P32457 2-520, looked up)
Cell division control protein …: SLKEEQVSIKQDPEQEERQHDQFNDVQIKQESQDHDGVDSQYTNGTQNDDSERFEAAESDVKVEPGLGMGITSSQSEKGQVLPDQPEIKFIRRQINGYVGFANLPKQWHRRSIKNGFSFNLLCVGPDGIGKTTLMKTLFNNDDIEANLVKDYEEELANDQEEEEGQGEGHENQSQEQRHKVKIKSYESVIEENGVKLNLNVIDTEGFGDFLNNDQKSWDPIIKEIDSRFDQYLDAENKINRHSINDKRIHACLYFIEPTGHYLKPLDLKFMQSVYEKCNLIPVIAKSDILTDEEILSFKKTIMNQLIQSNIELFKPPIYSNDDAENSHLSERLFSSLPYAVIGSNDIVENYSGNQVRGRSYPWGVIEVDNDNHSDFNLLKNLLIKQFMEELKERTSKILYENYRSSKLAKLGIKQDNSVFKEFDPISKQQEEKTLHEAKLAKLEIEMKTVFQQKVSEKEKKLQKSETELFARHKEMKEKLTKQLKALEDKKKQLELSINSASPNVNHSPVPTKKKGFLR
On to B1, for which the “Ratio (Deletedscore / WTscore)” value (bait BEM1-2) came out at 0.9934 and the “Ratio (Deletedscore / WTscore)” value (bait NBP2) worked out at 0.9977.

B2: YER114C_1 (protein, UniProt P39969 1-1040, looked up)
BEM1-interacting protein 2: MSNDREVPTLSQLNTTVSRDKDVSDTLSPDFDSKGSATGRDGGNFPMYIAINEYFKRMEDELDMKPGDKIKVITDDEEYKDGWYFGRNLRTNEEGLYPVVFTQKITVEKAPTLMRAKSTKRIYSPLTNEDPLLSSTFISENDSNSELPTPQPIETAASISRTANGKIERNLSLKNTMSDIDNALLEFKDDSIGPPDRFINSGRDEEHSITHETILSATDGLDVVESNSKPTTSSSTGFLNGDLENQATLINGIDTTKLNPVEAEFWSPEEITAYFIMEGYDVQSASRFQKHKISGKILLELELVHLKELDINSFGTRFEIFKEIEKIKEAIRTNGRSLNRASKTNNANIYNQLMPPANVDQRASYRGHVRKTSQSLEDLPSQQNFIPTPRNTRNSSASKHRPKSLVFDSQEANANIAPDVQIPQVVEEMAGNENLFVSPRRAPKPPSYPSPAQPPKSPLLNNTRTSPSPAQLYSWQSPTLSFSGPKRTSYIDQYSSSDSNFNSRSALPKNNQGGGKALSPIPSPTRNSVRNEDSEGKLTSSSKRNSVPYYGYAPESSSDRKSSCSSHEEEQFQETMNTFERPTSSIYADGSTIASISNDKLAHEKEGKKKPTRHSSSLSSKSKSDSRRNSSLKRSSSASRTSSFKKSSFMLSPFRQQFTDNAARSSSPEENPITSMPSEKNSSPIVDKKSSKKSRSKRRSVSAKEAEIFTETVKDDKNKRSASEAIKGETLKGKSLRQMTARPVAKKKQTSAFIEGLRSISVKEAMKDADFSGWMSKKGSGAMSTWKTRFFTLHGTRLSYFSSTTDTRERGLIDITAHRVVPAKEDDKLVSLYAASTGKGRYCFKLLPPQPGSKKGLTFTQPRTHYFAVDNKEEMRGWMAALIKTTIDIDTSVPIISSYTTPTVSLSKAQEMLAEAREETKLREQQMLENEEDEDQFLWDQQQLQQQQHDNNQGQADRTISASTQRTSDEDNTISTPNLSSANNTTIGSNGFSSPFLLASGLLSPGVARNSSMRGTEKKGKFSTEEDYFGDNSKHKTDKI
As for B2, the “Ratio (Deletedscore / WTscore)” value (bait BEM1-2) was 0.3794.

B3: YMR109W_1 (protein, UniProt Q04439 1-1219, looked up)
Myosin-5: MAILKRGARKKVHQEPAKRSANIKKATFDSSKKKEVGVSDLTLLSKISDEAINENLKKRFLNATIYTYIGHVLISVNPFRDLGIYTDAVMNEYKGKNRLEVPPHVFAIAESMYYNMKSYNENQCVIISGESGAGKTEAAKRIMQYIAAASSTHTESIGKIKDMVLATNPLLESFGCAKTLRNNNSSRHGKYLEIKFNNQFEPCAGNITNYLLEKQRVVSQIKNERNFHIFYQFTKGASDAYRQTFGVQKPEQYVYTAAAGCISAETIDDLQDYQETLKAMRVIGLGQEEQDQIFRMLAAILWIGNVSFIENEEGNAQVRDTSVTDFVAYLLQIDSQLLIKSLVERIMETNHGMKRGSVYHVPLNIVQADAVRDALAKAIYNNLFDWIVSRVNKSLQAFPGAEKSIGILDIYGFEIFEHNSFEQICINYVNEKLQQIFIQLTLKSEQETYEREKIQWTPIKYFDNKVVCDLIEARRPPGIFAAMNDSVATAHADSNAADQAFAQRLNLFTTNPHFDLRSNKFVIKHYAGDVTYDIDGITDKNKDQLQKDLVELIGTTTNTFLATIFPDTVDRESKRRPPTAGDKIIKSANDLVETLSKAQPSYIRTIKPNETKSPNDYDDRQVLHQIKYLGLQENVRIRRAGFAYRQVFEKFVERFYLLSPHCSYAGDYTWQGDTLDAVKYILQDSSIPQQEYQLGVTSVFIKTPETLFALEHMRDRYWHNMAARIQRAWRRFLQRRIDAATKIQRTIRERKEGNKYEKLRDYGTKVLGGRKERRSMSLLGYRAFMGDYLSCNESKSKGAYIKRQVSIKEKVIFSIHGEALHTKFGRSAQRLKKTFLLTPTTLYIVGQTLVQNAMTYTQDYKIDVRNIQAVSLTNLQDDWVAIKLASSGQPDPLINTYFKTELITHLKRLNDKIQIKIGSAIEYQKKPGKLHSVKCQINESAPKYGDIYKSSTISVRRGNPPNSQVHKKPRKKSSISSGYHASSSQATRRPVSIAAAQHVPTAPASRHSKKPAPPPPGMQNKAATRRSVPNPASTLTASQSNARPSPPTAATRATPAATPAAAAMGSGRQANIPPPPPPPPPSSKPKEPMFEAAYDFPGSGSPSELPLKKGDVIYITREEPSGWSLGKLLDGSKEGWVPTAYMKPHSGNNNIPTPPQNRDVPKPVLNSVQHDNTSANVIPAAAQASLGDGLANALAARANKMRLESDDEEANEDEEEDDW
B3: the “Ratio (Deletedscore / WTscore)” value runs as follows: (bait BEM1-1) 0.9175; (bait BEM1-2) 0.7054; (bait BOI2) 0.9032; (bait HSE1) 0.9954; (bait NBP2) 0.9518; (bait PIN3) 0.6702.

B4: YJL151C_2 (protein, UniProt P14359 1-133, looked up)
Protein SNA3: MDRDHINDHDHRMSYSINKDDLLLMVLAVFIPPVAVWKRKGMFNRDTLLNLLLFLLLFFPAIIHACYVVYETSSERSYDLSRRHATAPAVDRDLEAHPAEESQAQPPAYDEDDEAGADVPLMDNKQQLSSGRT
For B4, the “Ratio (Deletedscore / WTscore)” value runs as follows: (bait ABP1) 1.204; (bait BZZ1-2) 1.485.

B5: YCR002C_1 (protein, UniProt P25342 1-322, looked up)
Cell division control protein …: MDPLSSVQPASYVGFDTITNQIEHRLLKKGFQFNIMVVGQSGLGKSTLINTLFASHLIDSATGDDISALPVTKTTEMKISTHTLVEDRVRLNINVIDTPGFGDFIDNSKAWEPIVKYIKEQHSQYLRKELTAQRERFITDTRVHAILYFLQPNGKELSRLDVEALKRLTEIANVIPVIGKSDTLTLDERTEFRELIQNEFEKYNFKIYPYDSEELTDEELELNRSVRSIIPFAVVGSENEIEINGETFRGRKTRWSAINVEDINQCDFVYLREFLIRTHLQDLIETTSYIHYEGFRARQLIALKENANSRSSAHMSSNAIQR
For the molecule B5, the “Ratio (Deletedscore / WTscore)” value reads like this: (bait BEM1-2) 0.5157; (bait BOI1) 0.9522; (bait NBP2) 0.7856; (bait RVS167) 0.8283.

B6: YJR076C_1 (protein, UniProt P32458 2-415, looked up)
Cell division control protein …: SGIIDASSALRKRKHLKRGITFTVMIVGQSGSGRSTFINTLCGQQVVDTSTTILLPTDTSTEIDLQLREETVELEDDEGVKIQLNIIDTPGFGDSLDNSPSFEIISDYIRHQYDEILLEESRVRRNPRFKDGRVHCCLYLINPTGHGLKEIDVEFIRQLGSLVNIIPVISKSDSLTRDELKLNKKLIMEDIDRWNLPIYNFPFDEDEISDEDYETNMYLRTLLPFAIIGSNEVYEMGGDVGTIRGRKYPWGILDVEDSSISDFVILRNALLISHLHDLKNYTHEILYERYRTEALSGESVAAESIRPNLTKLNGSSSSSTTTRRNTNPFKQSNNINNDVLNPASDMHGQSTGENNETYMTREEQIRLEEERLKAFEERVQQELLLKRQELLQREKELREIEARLEKEAKIKQEE
As for B6, the “Ratio (Deletedscore / WTscore)” value is reported as 0.6782 (bait BEM1-2), 0.8182 (bait MYO3), 0.9436 (bait MYO5) and 1.148 (bait RVS167).

B7: YDR166C_1 (protein, UniProt P89102 1-971, looked up)
Exocyst complex component SEC5: MDRFQIGDEQLLRFYQLKTINPTHSWAQDSSKLNNEEATSNELGVETSFDILKDFKYGNQISIDKESRAYLNDESLSYIRDPLNGQEMSKELQHLPNDSMRLNYLVNSKQFNVKAFLRDMHKQDSFNDLNNSLDRLDSDIQDQSIHLKQLVGKNFTKYVKIKNKLDQIYKEFDEKTNEKNQCDSPKENQINVESLNKKVDEVIRTTTFKLKPLMDNYQKILNYQATKKFIELNKFYFNLPKSLKRCLTNNDFNEFIIEYSKGLTLRRRFNQSSDASQSLVIKRIWTQIENLLVTYKDLIWNSLINSNFNIDQPQETILSLFSKLLNLENFINNNQRESESGNKNTTSSSNENPILRWMSIKMNGFQNELNELSGHMISKIIHSQRLILQNNTNQDKSQGCVELSYYLKINQLFQIISDTGKDSEGLKSTVEPNKVNTISGTSYLNLNCQPSSQGLTDSPTIIEMWLLILKYINDLWKICDQFIEFWEHIEKFLDGTYQNSIINEKRKENILIGDSNIIESYQKSLILKEEQINEVRLKGEEFITSVSQNLISFFTSSQSSLPSSLKDSTGDITRSNKDSGSPLDYGFIPPNCNGLSCLRYLPKIVEPILKFSTELAQLNITTNGITICRNTLSTIINRCVGAISSTKLRDISNFYQLENWQVYETVTFSSKSQDSSKNLTFEYGVTQFPEIVTSFQEVSIKTTRDLLFAYEKLPIINGISVVSYPSKQLLTGIEIQQIISMEAVLEAILKNAAKDKDNPRNSHTILTLTNLQYFRECAFPNILQYFDDAFEWNLASKNLELFSLLSKMESSIFGNYLSDLKINLRDTLEEKFHEINWPMYTSNSFRVGDYIIEALMILIVVHSECFRIGPQLIHKILIETQIFIARYLFEAFKPYVGNLSNDGSLQIIVDLEFFQKVMGPLLEKDTEATLRACLQNCFQNDTNRLQKCINEINPIVSANLKRTAIQFAAFS
For B7, the “Ratio (Deletedscore / WTscore)” value is, setting by setting: (bait BEM1-2) 0.5345; (bait BOI2) 0.7084.

The values above are taken from article PMC7954794, “Protein context shapes the specificity of SH3 domain-mediated interactions in vivo” (Nature Communications, 2021).
